# Measurements from patent US20190270826A1 (Janssen / Centocor, published 2019).
# T1: human IL1RAP on cells (endogenous) (human, UniProt Q9NPH3 21-570)
# T1 sequence (looked up): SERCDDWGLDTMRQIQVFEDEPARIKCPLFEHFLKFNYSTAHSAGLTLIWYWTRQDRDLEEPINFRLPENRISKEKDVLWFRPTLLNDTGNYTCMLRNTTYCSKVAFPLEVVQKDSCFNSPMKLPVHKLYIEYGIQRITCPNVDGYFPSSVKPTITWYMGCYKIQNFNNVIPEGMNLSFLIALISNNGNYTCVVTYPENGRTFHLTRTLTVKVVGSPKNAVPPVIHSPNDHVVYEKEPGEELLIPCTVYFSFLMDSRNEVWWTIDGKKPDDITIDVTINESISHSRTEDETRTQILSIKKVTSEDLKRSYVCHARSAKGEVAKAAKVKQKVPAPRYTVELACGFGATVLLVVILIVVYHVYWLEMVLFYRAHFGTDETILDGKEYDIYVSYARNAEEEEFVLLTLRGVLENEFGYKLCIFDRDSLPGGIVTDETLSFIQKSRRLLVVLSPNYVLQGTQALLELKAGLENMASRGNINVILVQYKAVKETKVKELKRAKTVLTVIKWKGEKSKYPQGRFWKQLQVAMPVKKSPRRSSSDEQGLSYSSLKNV
# T2: rat IL1RAP ECD displayed on HEK-293F cells (pDisplay) (rat, UniProt Q63621 21-367)
# T2 sequence: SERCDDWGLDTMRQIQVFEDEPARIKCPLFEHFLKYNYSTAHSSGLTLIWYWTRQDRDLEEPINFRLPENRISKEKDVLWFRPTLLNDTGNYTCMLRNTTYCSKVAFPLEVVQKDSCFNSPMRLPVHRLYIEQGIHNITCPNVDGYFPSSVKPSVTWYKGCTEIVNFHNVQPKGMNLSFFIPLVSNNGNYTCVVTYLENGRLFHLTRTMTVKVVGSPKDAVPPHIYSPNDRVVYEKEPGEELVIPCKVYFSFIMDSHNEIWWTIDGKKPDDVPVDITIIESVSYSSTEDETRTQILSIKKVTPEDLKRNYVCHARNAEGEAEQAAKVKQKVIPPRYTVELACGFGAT
# T3: human IL1RAP ECD displayed on HEK-293F cells (pDisplay) (human, UniProt Q9NPH3 21-367)
# T3 construct: also called Human clone HE2 IL1RAP FL-ECD cell line
# T3 sequence: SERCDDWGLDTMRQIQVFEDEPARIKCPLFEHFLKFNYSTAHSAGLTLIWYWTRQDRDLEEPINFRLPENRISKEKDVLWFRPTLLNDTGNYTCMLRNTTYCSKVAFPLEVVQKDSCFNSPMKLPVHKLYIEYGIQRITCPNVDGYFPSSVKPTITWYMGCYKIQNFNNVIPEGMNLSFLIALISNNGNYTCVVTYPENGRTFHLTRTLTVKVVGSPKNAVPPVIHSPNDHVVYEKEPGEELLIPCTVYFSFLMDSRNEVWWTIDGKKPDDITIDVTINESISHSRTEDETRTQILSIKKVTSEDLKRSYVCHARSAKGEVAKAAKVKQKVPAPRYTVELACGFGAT
# T4: human FcγRIIb (human, UniProt P31994 43-217, limits assumed)
# T4 construct: GST-tagged
# T4 sequence (looked up): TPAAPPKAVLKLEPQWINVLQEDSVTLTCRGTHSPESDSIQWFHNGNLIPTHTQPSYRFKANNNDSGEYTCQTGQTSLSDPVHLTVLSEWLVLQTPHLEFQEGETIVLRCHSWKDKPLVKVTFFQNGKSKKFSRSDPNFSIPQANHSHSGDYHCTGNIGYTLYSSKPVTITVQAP
# B1: IC3B19 (bispecific antibody, human IgG4 S228P, kappa, lambda, F234A L235A)
# heavy 1: EVQLVESGGGLVQPGGSLRLSCAASGFTFNTYAMNWVRQAPGKGLEWVARIRSKYNNYATYYAASVKGRFTISRDDSKNSLYLQMNSLKTEDTAVYYCARHGNFGNSYVSWFAYWGQGTLVTVSSASTKGPSVFPLAPCSRSTSESTAALGCLVKDYFPEPVTVSWNSGALTSGVHTFPAVLQSSGLYSLSSVVTVPSSSLGTKTYTCNVDHKPSNTKVDKRVESKYGPPCPPCPAPEAAGGPSVFLFPPKPKDTLMISRTPEVTCVVVDVSQEDPEVQFNWYVDGVEVHNAKTKPREEQFNSTYRVVSVLTVLHQDWLNGKEYKCKVSNKGLPSSIEKTISKAKGQPREPQVYTLPPSQEEMTKNQVSLTCLVKGFYPSDIAVEWESNGQPENNYKTTPPVLDSDGSFLLYSKLTVDKSRWQEGNVFSCSVMHEALHNHYTQKSLSLSLGK
# light 1: QTVVTQEPSLTVSPGGTVTLTCRSSTGAVTTSNYANWVQQKPGQAPRGLIGGTNKRAPGTPARFSGSLLGGKAALTLSGVQPEDEAEYYCALWYSNLWVFGGGTKLTVLGQPKAAPSVTLFPPSSEELQANKATLVCLISDFYPGAVTVAWKADSSPVKAGVETTTPSKQSNNKYAASSYLSLTPEQWKSHRSYSCQVTHEGSTVEKTVAPTECS
# heavy 2: not shown
# light 2: DIQLTQSPSFLSASVGDRVTITCRASQGISSYLAWYQQKPGKAPKLLIYAASTLQSGVPSRFSGSGSGTEFTLTISSLQPEDFATYYCQQVNSYPLTFGGGTKVEIKRTVAAPSVFIFPPSDEQLKSGTASVVCLLNNFYPREAKVQWKVDNALQSGNSQESVTEQDSKDSTYSLSSTLTLSKADYEKHKVYACEVTHQGLSSPVTKSFNRGEC
# notes: IgG4-PAA, Fab arm exchange; also called IAPB57 x CD3B219; IL1RAP x CD3
# Columns and labels:
# [1] = biological target: T1, human IL1RAP on cells (endogenous); assay: cell-based or functional assay
# [2] = biological target: T1, human IL1RAP on cells (endogenous); assay: cell-based or functional assay; remark: listed apart in the source
# [3] = biological target: T2, rat IL1RAP ECD displayed on HEK-293F …; assay: MSD cell binding, HEK-293F Rat clone 1 cells displaying rat IL1RAP ECD
# Description: (§1) Cells were immobilized and IL1RAP antibody samples were assayed in triplicate. Briefly, expression supernatants of purified IL1RAP antibodies were normalized to 10 μg/mL. 5000 cells per well were plated into a 384 well plate (MA6000, cat. L21XB, MSD) and allowed to adhere for 2 hr. Cells were then blocked with 20% FBS in PBS (Gibco) for 15 mins. Antibody supernatants were then added and left at RT for 1 hr. Cells were washed 3 times with PBS and a ruthenium labeled secondary antibody (Mesoscale Discovery) was then added at 2 μg/mL and incubated for 1 hour at room temperature. A further washing step was then applied and 35 μL per well of 2×MSD Read buffer T (surfactant free) was then added and incubated for 5-30 minutes for detection. Plates were then read using Sector Imager 2400 (MSD). Data was normalized to controls and graphed using GraphPad Prism Version 5. A positive binder was determined to be a hit with a signal 3× greater than parental cell line background.
# (§2) The MSD cell binding assay described in Example 4 was used to assess IL1RAP binding.
# [4] = biological target: T3, human IL1RAP ECD displayed on HEK-293F …; assay: MSD cell binding, HEK-293F Human (clone HE2) cells displaying human IL1RAP ECD
# Description: as §1, §2
# [5] = biological target: T5, human FcRn (human, UniProt P55899 24-297; P61769 21-119, limits assumed); assay: AlphaScreen competition, human FcRn (n=1); displaced: biotinylated control mAb B21M WT IgG1 (m27); pH 6.0
# T5 construct: GST-tagged
# Text: (§3) Measurements were made using an AlphaScreen™ assay (Amplified Luminescent Proximity Homogeneous Assay (ALPHA), PerkinElmer, Wellesley, Mass.), a bead-based luminescent proximity assay. Laser excitation of a donor bead excites oxygen, which if sufficiently close to the acceptor bead generates a cascade of chemiluminescent events, ultimately leading to fluorescence emission at 520-620 nm.
# [6] = biological target: T4, human FcγRIIb; assay: AlphaScreen competition, human FcγRIIb (n=1); displaced: biotinylated control mAb B21M hIgG1 WT; pH 7.2
# Text: as §3
binder,measurement,setting,value
B1,"mean EC50, T-cell activation, OCI-AML5 cells in whole blood, 48 h",[1],5990 pM
same,"mean EC50, cytotoxicity of OCI-AML5 cells in whole blood, 48 h",[1],3130 pM
same,"Average EC50, T-cell mediated cytotoxicity, ALL-SIL",[2],4 pM
same,"Average EC50, T-cell mediated cytotoxicity, HPB-ALL",[2],8 pM
same,"Average EC50, T-cell mediated cytotoxicity, LAMA-84",[2],1 pM
same,"Average EC50, T-cell mediated cytotoxicity, MEG-01",[2],2 pM
same,binding result,[3],no binding (tested: 100 µg/mL)
same,EC50 (read off the curve),[4],~1 µg/mL
same,IC50 (read off the curve),[5],~200000 pM
same,binding result,[6],binds
